According to article PMC6560085:
Positions count from the first letter of the chain named.

B1: fragment s2 (ssDNA)
DNA: GGTGAAAAAGTTGCATGGTGCTGGTGAA
B2: AS probe 2 (adjacent) (ssDNA)
DNA: CTGGTGAACAGACCAATTTATGCCTACAGCCTCCTAGTACAAAGAC
B3: AS probe 1 (WT, nt1804-1849) (ssDNA)
DNA: ATGAGATGATTAGGCAGAGGTGAAAAAGTTGCATGGTGCTGGTGAA
B4: AS Mutant 2 (ssDNA)
DNA: B3 DNA with G13A, G17T, T21C
B5: AS Mutant 5 (ssDNA)
DNA: B3 DNA with G35A, G38A, G41C
B6: AS probe 1 unlabeled competitor (ssDNA)
DNA: B3 DNA
B7: AS Mutant 3 (central A5 repeat mutated) (ssDNA)
DNA: B3 DNA with A23C, A24T, A26G, A27C
B8: AS Mutant 1 (ssDNA)
DNA: B3 DNA with G3C, T7C, T10C
B9: AS Mutant 4 (ssDNA)
DNA: B3 DNA with T29C, G31A, G35A, G38A
B10: fragment s3 (ssDNA)
DNA: CAGAGGTGAAAAAGTTGCATGGTG
B11: fragment s1 (ssDNA)
DNA: ATGAACATGAGATGATTAGGCAGAGGTG
B12: fragment s4 (ssDNA)
DNA: AAAGTTGCATGGTGCTGGTGAACA

Columns and labels:
GST-TARDBP (TDP-43) [1] = target: T1, GST-TARDBP (TDP-43) (human, UniProt Q13148 1-414); assay: EMSA; conditions: protein: recombinant; tags: N-terminal GST (pGEX-4T-1); label: 3' biotin; single strand
T1 sequence (Q13148 whole entry): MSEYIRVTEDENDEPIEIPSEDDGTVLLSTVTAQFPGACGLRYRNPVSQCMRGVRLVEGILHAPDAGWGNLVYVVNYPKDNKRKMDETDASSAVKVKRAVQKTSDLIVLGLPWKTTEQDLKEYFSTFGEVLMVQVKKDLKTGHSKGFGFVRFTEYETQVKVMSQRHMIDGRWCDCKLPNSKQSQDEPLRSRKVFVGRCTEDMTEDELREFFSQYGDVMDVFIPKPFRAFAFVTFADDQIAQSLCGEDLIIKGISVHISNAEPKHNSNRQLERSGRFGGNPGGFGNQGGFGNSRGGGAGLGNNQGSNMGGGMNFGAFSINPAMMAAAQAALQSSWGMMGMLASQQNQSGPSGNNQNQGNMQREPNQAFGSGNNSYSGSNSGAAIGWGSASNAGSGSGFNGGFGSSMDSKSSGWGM

GST-TARDBP (TDP-43) [2] = target: T1, GST-TARDBP (TDP-43); assay: EMSA; 2 ug protein; conditions: protein: recombinant; tags: N-terminal GST (pGEX-4T-1); label: 3' biotin; single strand
GST-TARDBP (TDP-43) [3] = target: T1, GST-TARDBP (TDP-43); assay: EMSA; dose dependent; supershifted by anti-TARDBP (Fig. 6d); conditions: protein: recombinant; tags: N-terminal GST (pGEX-4T-1); label: 3' biotin; single strand
GST-TARDBP (TDP-43) [4] = target: T1, GST-TARDBP (TDP-43); assay: competition; 0-200 fold unlabeled competitor; conditions: protein: recombinant; tags: N-terminal GST (pGEX-4T-1); single strand
GST-TARDBP (TDP-43) [5] = target: T1, GST-TARDBP (TDP-43); assay: EMSA; 2 ug protein; binding unaffected; conditions: protein: recombinant; tags: N-terminal GST (pGEX-4T-1); label: 3' biotin; single strand

Binder | binding result (GST-TARDBP (TDP-43) [1]) | binding result (GST-TARDBP (TDP-43) [2]) | further results
B1 | no binding | – | –
B2 | – | no binding | –
B3 | – | – | binding result (GST-TARDBP (TDP-43) [3]): binds
B4 | – | no binding | –
B5 | – | no binding | –
B6 | – | – | binding result (GST-TARDBP (TDP-43) [4]): binds
B7 | – | – | binding result (GST-TARDBP (TDP-43) [5]): binds
B8 | – | no binding | –
B9 | – | no binding | –
B10 | no binding | – | –
B11 | no binding | – | –
B12 | no binding | – | –
